Experimental data published in the Human Domainome abundance scans (Beltran et al. 2025).

B1: Myocardin-related transcription factor A, residues 341 to 383; numbered along this chain, Q969V6 (parent)
chain: GALPANLDDMKVAELKQELKLRSLPVSGTKTELIERLRAYQDQ

Variants of: B1
Experiment: abundance fitness (aPCA) (normalised: wild type 0, dead -1); higher = more abundant; growth selection in yeast, the domain comes from the species named
Conditions: Homo sapiens

Abundance fitness: each site, then its substitutions
T31: Y -0.193 | N -0.332 | Q -0.138 | L -0.145 | S -0.061 | H -0.129 | R 0.012 | E 0.085 | I 0.092 | P -0.074 | M -0.089 | V -0.035 | A 0.098 | G -0.011 | W -0.246 | K -0.141 | D 0.005
V26: Y -0.031 | Q 0.155 | S -0.035 | G -0.038 | H -0.265 | P 0.191 | L 0.229 | M -0.032 | K -0.195 | W -0.538 | A 0.18 | R -0.129 | N -0.466 | F -0.033 | C -0.223 | E 0.168
S27: G -0.012 | A 0.181 | C -0.201 | T -0.196 | L -0.376 | M -0.286 | R -0.186 | Y -0.136 | D 0.11 | V -0.251 | E 0.043 | K -0.196 | W -0.115 | P -0.08 | Q -0.424
I34: L -0.146 | K -0.031 | R -0.146 | A -0.187 | W -0.363 | M -0.144 | H -0.186 | C -0.139 | G -0.305 | V -0.21 | D -0.546 | Y 0.017 | T -0.151 | Q 0.116 | E -0.151
P25: K -0.135 | Q -0.167 | H -0.875 | R -0.304 | L -0.542 | S -0.165 | W -0.808 | I 0.319 | Y -0.293 | V -0.358
E32: N -0.357 | R -0.319 | A -0.053 | Y -0.669 | P -0.533 | K -0.198 | G -0.606 | H -0.375 | Q -0.038 | C -0.17 | L -0.472 | I -0.149 | M -0.239 | V -0.093 | T -0.143 | W -1.15
T29: D -0.147 | C -0.198 | L -0.376 | K -0.092 | W -0.601 | Q 0.157 | S -0.084 | V -0.26 | H -0.142 | E 0.009 | I -0.362 | Y -0.44 | M -0.447 | R -0.196
G28: H -1.18 | V -1.38 | D -0.758 | Y -0.626 | P -1.13 | K -0.862 | E -0.628 | M -0.957 | A -1.02 | L -1.06 | C -0.608 | T -1.56 | Q -0.659 | W -1.03 | S -0.85
K30: Q -0.092 | M -0.332 | W -0.6 | I -0.158 | A -0.403 | S -0.231 | F -0.463 | H -0.217 | P -0.242 | G -0.494 | N -0.343 | R 0.024 | E -0.269 | V -0.509 | T -0.091 | D -0.478
E35: K 0.035 | P -0.505 | V -0.171 | G 0.041 | T -0.173 | I -0.174 | L 0.026 | Q 0.398 | S 0.109 | F -0.242 | R -0.047 | Y 0.166 | W -0.19 | A 0.23
L33: N 0.592 | T -0.283 | V -0.249 | P -0.403 | R -0.617 | M 0.046 | K -0.315 | S -0.067 | Q -0.128 | A -0.261 | G -0.224
L37: N -0.327 | T -0.416 | A -0.435 | S -0.419 | G -0.303 | K -0.455 | D -0.298 | V -0.3
